In a protein production outcome set (Wang et al. 2014):

Experiment: label from the status in PepcDB records

For “MLATPFWYNAALKVLKPVYRWRIKKRAENEMRYQQECRERFGPFQQPQNRHALWFHAVSVGETNAAQPLIEYYLKLGHPVLVTNTTKTGQARAKSLFLKSPYLELFQAVYLPVDQIFLLKQFFELYQPKLLALVETELWPNLIDQAQHYGVPTFLINARLSEKSAQGYARVSALSNAMLSRLTGLLAQDQSTQQRFIGLGLAREKAQVVGNIKFDIDVPLEHHHHHH”, the protein production was “failed”.

For “MSVNESVNRIVGGSGVILAGTFLGMLLDILIKKVMTSHLSPADFGTYSLALTVISITGAVATLGLNEGVPRYIAFFRGRQEEQKVHELIISAILMGLIAGLLAILVSPSLFESLAGKGFDAQGQILSVVKILVFAIPFTILLNLTVAIYRGFDRTNVNMYFYNIIRPLSLLGFASAAVYFGASLKGVVFADLISMVFTFSIMSVYFVKKPPVKPEWKIKFSEPTRQLIRYSFPLLITATLLNLMSWIDTIMLGYFRPAEVVGVYNAVYPIVGFLSLVIASMGYVYVPVASKLWGLNKTQPVGSIYAVMTKWCFLLTFPIFALIFVYPEFLITKLYGAEYVGGTTALRILAMGFIANSYFGFNYHTLLASGDSDFLMRCSVASAGINAVVNFMLIPEYGMIGAAIGTAVSYASIEVSMTLRAWRKQKMHPFTSMYRKLTLVCVVMTATMLAAKIIIPLSGAAWEYAVFIIVYFAVIHYAKILDKDEISMVDEIRKNIRQNVSVHVPQAIKTLVP”, the protein production was “failed”.

In the case of “MINGNTSGLKEYILENLDKLYSTKIEKGKIINQEIVDYISEISNKINREINVAIDRNGNIIDISIGDSSTVNLPVIPVYDKKLSGVRIIHTHPSGNPHLSSVDISALIKLKLDCIVSIGVSEEGVTGYEVAICSIVNDELTYDRTLLENLDDFDYLEEIKEVEENLRKRNITEDDKEYALLIGIDKEEYLDELEELASACDVKVVGRFFQKRSKPDPLFLIGSGKIQELALTRQVRKVNLLIFDEELSGLQLKMIEEVTGCKVIDRTTLILEIFARRARTREAKLQVELAQLKYRSNRLIGFGVTMSRLGGGVGTKGPGEKKLEIDRRVIKKTIAYLNNELENIKKIRNTQRSKREDSGMPRVSLVGYTNVGKSTLRNVLVDMYQNDKTLKKEEVLSQDMLFATLDTTTRTIELKDKRIVSLTDTVGFIQKLPHDLVESFKSTLEEVIFSDLIIHVADISSKNVIEQIDAVEDVLEELNCLDKTKILLLNKIDNVTKDNSFPLMEKKIEEIKAKYSNYQILIISAKNRFNIDELMELIKKNLIVKTYNCKLLIPYVNTEIAARVHRNTIVKSESFVDEGIILEVVMNEKEYNKFKDFIFN”, the protein production is reported as “failed”.

For “MTHETDQLYQAVQATRPLLRNITAAVERGTLREGVTVGQRAILEGLSLTPGATAPQLGAALQMKRQYISRILQEVQRAGLIERRTNPEHARSHRYWLTPRGEAIITAIRADEMAKLALFSEGFSSVELTAYHKVQLALTRFFADLAKEA”, the protein production was “not failed”.

For “MVKHLQVRGRLYYRSLAHGLRLTMRRLLFCFLLVLTSLTAIAAEPARPKVGLVLSGGAARGLAHIGVLKALEEQGVRIDAIAGTSMGAVVGGLYASGYSVEELEKLATTLDWQQALSDAPPREDVPFRRKQDDRDFLVKQKLSFRDDGSLGLPLGVIQGQNLSLLLESKLAHTADTRDFDKLPIPFRAVATDIASGEKVVFRRGHLPQVIRASMSIPAVFAPVELDGRLLVDGGMVDNIPVDVAREMGVDLAIVVDIGTPLRDRKQLLTVVDVLNQSITLMTRRNSEEQLASLHRDDILIQPSLTAFGVTDFGRARHMIDAGYRATRLLDPRLAALRQLEGDASLAVARSPRQRTPVITAIRIENDSKVSDDVIRSYIRQPIDAPLELDRLQTDMGTLYGLDYFDRVQYRVVHKGNDHTLVINARGRRGGTDYLRLGLNLSDDLRGDSAFNLGASYRVNGINSLGAEWLTRGQIGDQQALYSEFYQPLDVGSRYFIAPYLDLGSQNIEATLDNDPVAEYRLERYGFGLNVGRQIGNSGEVRLGVGKAWGEAEVRIGDQDLPKVSFNEGFYELKYSFDTLDNVYFPHHGEDIGLTLRKYDKSLDSDQDYRQWLFTLDKAISSGPNTFVLGGSYGRTLDDTEVVTSSFVMGGARQLSGFREDSVSGQNASLLRMVYYRRLTPRAYVPLDFPLYIGGSLERGRAWNNDNEFDSGYINAASIFLGLDTPLGPLNFSYGANSAHEQAVYLNLGHTF”, the protein production was “failed”.

For “QIAAVDPAGMSVIRDRNQLFRVNSAGEVENTYTLKVINKTQQVQEYNLDVKGLNDVSWYGKQTIQVEPGEVLNLPMSLGADPDKLNSAITTIQFILTDKSNEFTIEVESRFIKKL”, the protein production was “not failed”.

With “MSPRDVLDSIFAFPPNRDTLGGTSYLIVGNEGNILIDCPALDQTNLNFLRSHGGVRWLFLTHRGAIGRTAEIQQNYGCDILIQEQEAYLLPGLTVTTFTQEFAVTPTAKAIWTPGHSPGSSCLYYNHQGGVLFSGRHLLPNQKGEPVPLRTAKTFHWPRQIKSLQTILETLTPETLQYICPGANTGFLRGKRSIDTAYQRLASLDLKALLQTQPLILEHHHHHH” the protein production was “not failed”.

For “METQFHGGDGEDPWLARDKLYHVIFCFSISLIFSTLASFSRYSFLRRHSIWIGSAFSLAAGAAKEAADQIGIFPSAGASVRDAVADAIGVVIAALVLLLWKSRRSRTRPILPI”, the protein production was “failed”.

With “MNIIIATTKSWNIKNAQKFKKENESKYNTTIITNKDELTFEKVKLINPEYILFPHWSWIIPKEIFENFTCVVFHMTDLPFGRGGSPLQNLIERGIKKTKISAIKVDGGIDTGDIFFKRDLDLYGTAEEIFMRASKIIFNDMIPELLTKRPVPQKQEGEATVFQRRKPEQSEISPDFDLEKIYDYIRMLDGEGYPRAFIKYGKYRLEFSRASMKNGKIIADVEIIEGDENE” the protein production was “not failed”.

With “GMKAADFTYVTVHGDNSRMSRLKAQYTMLFFYDPDCSNCRKFEKLFAEIPAFVEMVENGTLRVLAIYPDENREEWATKAVYMPQGWIVGWNKAGDIRTRQLYDIRATPTIYLLDGRKRVILKDTSMEQLIDYLATQAG” the protein production was “not failed”.

With “MASADEKVVEEKASVISSLLDKAKGFFAEKLANIPTPEATVDDVDFKGVTRDGVDYHAKVSVKNPYSQSIPICQISYILKSATRTIASGTIPDPGSLVGSGTTVLDVPVKVAYSIAVSLMKDMCTDWDIDYQLDIGLTFDIPVVGDITIPVSTQGEIKLPSLRDFF” the protein production was “not failed”.

In the case of “MSSESRNLNRFFLYFAGILIFFIYITPCLATYNFEGTPEQDELIEITSGTVKGGLYVDGGEGLKKTPYVQEFNVPGDVVTWARVYVGVWGGTEEKTGTLDLTINGEEFESLDLEGKNDKGDDEDQNPAIYCTGHGVYWIAYDVGTNISTGPVTVEAQTEGDIDGRVYGIILAAVYEDKEGQSTKYWVEEGNINLHGKGWSETLASTHDEGYADFSGKVDTDKYNTANLAVVYLCGTPGLDDSLYFNEEQLSDGENSNDIANSKSYFDFKFFDVLDLLEEDDNELKFQRDEEDYVHPVLAALTLGTGEEGTSDLIVSGLTVPLLYAGKDNTIKASIKNIGKDSAYGFQAALYADGEIVSTAPVSSLSSGKSKTIEFNWKPAWDGEQALKVYVDYTNKKKETCEVNNWNSPFLAKVVDLTPPELEIDYPEDGARVDAGYLTVSGTIEDTNRNLTVDVNGQNALISGESWSASVPVVSGPNTIVVSAVDGENNTGRELIVVEGKESSTDSKESSQSDLTVSSKAENETEPVNQSILGSQTREYEKQAVLSPISEGIGFISAILFLRYRNRGKRL”, the protein production is reported as “failed”.

For “MNSHMLVSSEIDIGLNKSNIERPPGSKKRTKHLPCEVPLAESADRILEPQDYLNFTRFSLGFVETETYDNPRFGGHQTLSERERSYSAVNQTIHCGFVKGTGFDLSEKDRAYMKNCVVSVSSCIFGSSDFLRRPATKKISEFSKRNVCFVMFVDEQTLSKLASEGHVPDKQGFVGLWKTVVVSNLPYNDMRKTGKVPKFLSHRLFPSSRYSIWLDSKMRLTTDPMLIIDFFLWRTKSEFAISNHYDRHCVWDEVLQNKRLNKYNHSAIDEQFMFYRSDGLKKFDPSDPNSPLPSYVPEGSFIVRAHTPMSNLFTCLWFNEVDRFTSRDQLSFAYTYLKLQRLNSDRPLRLNMFKDCERRALTKLFHHRVDSSPPSPPT”, the protein production was “not failed”.

For “MEIAVERVFTKEILKRAVNLFHVTVEEKPLGDFENYIFKAKGDNDEDYVLRLTHSSHRSKQEVEAELDFLRYVAENGAKVAGPLYSTSRNLVEEIVAEDGTFFFASLFIYAKGEQVKGAESPYWGDAYFEAWGKAIGQLHRLTMDYPKTDYRDTWEEDESGIVNELEDGQVKEIAAVLMDEIKALPVERETFGLMHGDIHQGNFHYDGKELTIFDFDDAAYNYFIHDLAMVLYYSVLFTPWTAEEKTDFARKQLQVLRKGYEYEHRLADSWYESLPLFLRLRDIGLYGTLQKKFKGKDMPDNFLKLSEELYERIIKREAIVNI”, the protein production was “failed”.
